The values below come from patent publication US20120148607A1 (ARGEN X N V, published 2012).

Like-named read-outs stand apart in the source and are kept apart here. Some results are limits rather than exact numbers.

Experiment [1] has as its target T1, LS1 (aa1-98) llama-human c-Met chimera (Llama glama; human, UniProt P08581 123-933).
T1 construct: range 1-98 (mature numbering, E=1);range 99-909 (mature numbering, E=1; derived); not shown: Flag and strep tag
Nature of the experiment: ELISA, 48A2 (2 µg/ml) immobilised, chimera added, streptavidin-HRP. The text has this: (§1) An ELISA was run to investigate the binding of the mAbs to the different chimeras.

The target of experiment [2] is T2, LS2 (aa1-199) llama-human c-Met chimera (Llama glama; human, UniProt P08581 224-933).
T2 construct: range 1-199 (mature numbering, E=1);range 200-909 (mature numbering, E=1; derived); not shown: Flag and strep tag
T2 sequence (P08581 224-933, change not shown): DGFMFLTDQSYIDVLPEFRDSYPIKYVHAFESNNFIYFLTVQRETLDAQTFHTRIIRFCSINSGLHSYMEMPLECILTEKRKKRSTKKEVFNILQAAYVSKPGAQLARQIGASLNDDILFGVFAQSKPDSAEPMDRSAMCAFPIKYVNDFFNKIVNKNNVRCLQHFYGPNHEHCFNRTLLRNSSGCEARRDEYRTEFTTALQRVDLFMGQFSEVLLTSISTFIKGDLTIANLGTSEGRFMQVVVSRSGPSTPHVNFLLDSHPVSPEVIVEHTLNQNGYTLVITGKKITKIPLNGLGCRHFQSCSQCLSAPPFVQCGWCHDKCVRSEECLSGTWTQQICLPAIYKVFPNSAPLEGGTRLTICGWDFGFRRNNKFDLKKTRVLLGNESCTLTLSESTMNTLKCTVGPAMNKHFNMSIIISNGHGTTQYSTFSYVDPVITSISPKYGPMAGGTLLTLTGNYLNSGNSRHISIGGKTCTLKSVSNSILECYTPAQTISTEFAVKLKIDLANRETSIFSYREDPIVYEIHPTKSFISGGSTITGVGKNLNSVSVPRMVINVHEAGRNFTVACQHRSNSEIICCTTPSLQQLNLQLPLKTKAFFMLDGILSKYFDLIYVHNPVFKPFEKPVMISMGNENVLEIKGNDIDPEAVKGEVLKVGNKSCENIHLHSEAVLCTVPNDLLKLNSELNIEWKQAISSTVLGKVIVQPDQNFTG
The description is as above.
Source text: as §1

Experiment [3] addresses T3, LS3 (aa1-287) llama-human c-Met chimera (Llama glama; human, UniProt P08581 312-933).
T3 construct: range 1-287 (mature numbering, E=1);range 288-909 (mature numbering, E=1; derived); not shown: Flag and strep tag
Described as above.
Source text: as §1

The target of experiment [4] is T4, LS4 (aa1-348) llama-human c-Met chimera (Llama glama; human, UniProt P08581 373-933).
T4 construct: range 1-348 (mature numbering, E=1);range 349-909 (mature numbering, E=1; derived); not shown: Flag and strep tag
The description is as above.
Source text: as §1

Experiment [5] addresses T5, LS5 (aa1-448) llama-human c-Met chimera (Llama glama; human, UniProt P08581 473-933).
T5 construct: range 1-448 (mature numbering, E=1);range 449-909 (mature numbering, E=1; derived); not shown: Flag and strep tag
The experiment is described as above.
Source text: as §1

The target of experiment [6] is T6, LI8 (aa540-909) llama-human c-Met chimera (human; Llama glama, UniProt P08581 25-563).
T6 construct: range 1-539 (mature numbering, E=1; derived);range 540-909 (mature numbering, E=1); also called Ll8; not shown: Flag and strep tag
T6 sequence (P08581 25-563, change not shown): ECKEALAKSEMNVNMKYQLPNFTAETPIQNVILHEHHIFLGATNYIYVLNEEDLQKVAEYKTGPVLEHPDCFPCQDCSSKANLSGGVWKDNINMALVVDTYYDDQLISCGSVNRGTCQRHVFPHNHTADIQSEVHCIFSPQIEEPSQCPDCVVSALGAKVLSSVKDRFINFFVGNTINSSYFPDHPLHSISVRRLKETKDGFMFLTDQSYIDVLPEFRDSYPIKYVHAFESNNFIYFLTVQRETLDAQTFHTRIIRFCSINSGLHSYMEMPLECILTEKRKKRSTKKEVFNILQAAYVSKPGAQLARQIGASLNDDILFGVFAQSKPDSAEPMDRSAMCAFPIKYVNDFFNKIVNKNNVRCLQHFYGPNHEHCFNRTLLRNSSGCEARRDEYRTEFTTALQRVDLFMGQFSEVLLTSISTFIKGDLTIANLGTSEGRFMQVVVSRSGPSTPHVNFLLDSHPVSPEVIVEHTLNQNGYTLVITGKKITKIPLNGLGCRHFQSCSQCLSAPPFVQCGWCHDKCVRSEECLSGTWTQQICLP
The experiment is described as above.
Source text: as §1

In experiment [7] the target is T7, LI9 (aa572-909) llama-human c-Met chimera (human; Llama glama, UniProt P08581 25-595).
T7 construct: range 1-571 (mature numbering, E=1; derived);range 572-909 (mature numbering, E=1); also called Ll9; not shown: Flag and strep tag
T7 sequence (P08581 25-595, change not shown): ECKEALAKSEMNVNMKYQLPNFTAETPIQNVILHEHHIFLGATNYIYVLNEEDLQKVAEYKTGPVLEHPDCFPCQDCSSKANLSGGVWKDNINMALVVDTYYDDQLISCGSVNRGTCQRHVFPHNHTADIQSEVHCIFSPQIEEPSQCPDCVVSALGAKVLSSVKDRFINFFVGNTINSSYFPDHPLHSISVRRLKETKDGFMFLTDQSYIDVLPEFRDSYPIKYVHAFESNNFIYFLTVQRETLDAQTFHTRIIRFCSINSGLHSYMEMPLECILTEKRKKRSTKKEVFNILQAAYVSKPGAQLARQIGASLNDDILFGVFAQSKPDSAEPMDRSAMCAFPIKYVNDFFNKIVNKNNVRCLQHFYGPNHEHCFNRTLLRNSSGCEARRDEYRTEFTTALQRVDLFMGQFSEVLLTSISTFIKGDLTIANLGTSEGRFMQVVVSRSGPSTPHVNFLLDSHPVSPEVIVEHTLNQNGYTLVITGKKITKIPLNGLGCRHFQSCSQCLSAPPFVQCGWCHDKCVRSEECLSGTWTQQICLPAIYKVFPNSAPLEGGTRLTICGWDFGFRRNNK
Described as above.
Source text: as §1

Experiment [8] has as its target T8, LI10 (aa608-909) llama-human c-Met chimera (human; Llama glama, UniProt P08581 25-631).
T8 construct: range 1-607 (mature numbering, E=1; derived);range 608-909 (mature numbering, E=1); also called Ll10; not shown: Flag and strep tag
Described as above.
Source text: as §1

Experiment [9] deals with T9, LI11 (aa634-909) llama-human c-Met chimera (human; Llama glama, UniProt P08581 25-657).
T9 construct: range 1-633 (mature numbering, E=1; derived);range 634-909 (mature numbering, E=1); also called Ll11; not shown: Flag and strep tag
T9 sequence (P08581 25-657, change not shown): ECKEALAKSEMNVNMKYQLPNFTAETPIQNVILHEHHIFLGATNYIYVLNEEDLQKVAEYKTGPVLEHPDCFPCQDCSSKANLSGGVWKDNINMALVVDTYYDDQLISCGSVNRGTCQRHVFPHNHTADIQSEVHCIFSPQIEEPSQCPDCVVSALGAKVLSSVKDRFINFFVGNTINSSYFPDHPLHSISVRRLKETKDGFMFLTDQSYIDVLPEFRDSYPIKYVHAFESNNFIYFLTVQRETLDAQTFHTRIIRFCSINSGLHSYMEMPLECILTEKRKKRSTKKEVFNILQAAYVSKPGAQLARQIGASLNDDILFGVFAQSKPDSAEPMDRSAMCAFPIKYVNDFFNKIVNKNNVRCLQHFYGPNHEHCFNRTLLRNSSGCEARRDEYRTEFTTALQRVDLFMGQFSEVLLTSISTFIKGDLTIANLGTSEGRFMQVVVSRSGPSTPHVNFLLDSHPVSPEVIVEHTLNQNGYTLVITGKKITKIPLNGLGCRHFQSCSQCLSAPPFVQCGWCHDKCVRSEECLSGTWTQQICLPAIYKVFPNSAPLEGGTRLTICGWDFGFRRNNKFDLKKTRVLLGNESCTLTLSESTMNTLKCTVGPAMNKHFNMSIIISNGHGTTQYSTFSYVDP
The description is as above.
Source text: as §1

Experiment [10] concerns the target T10, Decoy c-Met (extracellular domain of human c-Met) (human, UniProt P08581 25-932).
T10 construct: extracellular domain; also called Decoy Met; monomeric Decoy Met
Nature of the experiment: binding ELISA, human c-Met (Decoy). In general terms: ELISA stands for enzyme-linked immunosorbent assay.

Experiment [11] has as its target T11, Rhesus (Maccaca mulatta, US20090191580-5) c-Met ECD (Rhesus (Maccaca mulatta)).
T11 construct: extracellular domain; also called Rhesus c-Met ECD; Rhesus ECD
Nature of the experiment: binding ELISA, Rhesus c-Met ECD immobilised (1 µg/ml). Here is the method: Cross reactivity to Rhesus (Maccaca mulatta, US20090191580_{—}5) c-Met ECD and mouse c-Met (R&D systems cat no: 527-ME) was performed in a binding ELISA. Rhesus ECD was immobilized in PBS (1 μg/ml) on a 96-well maxisorb plate and incubated at 4° C. over night. After blocking with 1% casein in PBS, the antibodies in dilutions starting with 10 μg/ml were added and allowed to bind for 1 h at room temperature. The plate was washed and a goat anti-human Fcγ antibody (Jackson) was added and incubated for 1 h at room temperature. After washing, TMB was added and the plate read at 620 nm

Experiment [12] has as its target T10, Decoy c-Met (extracellular domain of …). The experiment can be described thus: ELISA: c-Met ectodomain coated at 1 µg/ml on maxisorb plate; mAb in three-fold dilutions from 1 µg/ml, 1 h RT; HRP-conjugated Protein A, TMB, OD 450.
Another experiment has as its target T12, c-Met SEMA ectodomain (human, UniProt P08581 27-515).
T12 construct: domain: SEMA; also called SEMA domain
The description is as above.

Experiment [13] deals with T13, c-Met SEMA-PSI ectodomain (human, UniProt P08581 25-562, limits assumed).
T13 construct: domain: SEMA-PSI
The description is as above.

The target in experiment [14] is T14, recombinant dimeric c-Met (R&D systems, 358-MT/CF) (human, UniProt P08581 25-932).
T14 construct: Bought product; also called Fc-Met; recombinant c-Met
T14 sequence (P08581 25-932 limits assumed): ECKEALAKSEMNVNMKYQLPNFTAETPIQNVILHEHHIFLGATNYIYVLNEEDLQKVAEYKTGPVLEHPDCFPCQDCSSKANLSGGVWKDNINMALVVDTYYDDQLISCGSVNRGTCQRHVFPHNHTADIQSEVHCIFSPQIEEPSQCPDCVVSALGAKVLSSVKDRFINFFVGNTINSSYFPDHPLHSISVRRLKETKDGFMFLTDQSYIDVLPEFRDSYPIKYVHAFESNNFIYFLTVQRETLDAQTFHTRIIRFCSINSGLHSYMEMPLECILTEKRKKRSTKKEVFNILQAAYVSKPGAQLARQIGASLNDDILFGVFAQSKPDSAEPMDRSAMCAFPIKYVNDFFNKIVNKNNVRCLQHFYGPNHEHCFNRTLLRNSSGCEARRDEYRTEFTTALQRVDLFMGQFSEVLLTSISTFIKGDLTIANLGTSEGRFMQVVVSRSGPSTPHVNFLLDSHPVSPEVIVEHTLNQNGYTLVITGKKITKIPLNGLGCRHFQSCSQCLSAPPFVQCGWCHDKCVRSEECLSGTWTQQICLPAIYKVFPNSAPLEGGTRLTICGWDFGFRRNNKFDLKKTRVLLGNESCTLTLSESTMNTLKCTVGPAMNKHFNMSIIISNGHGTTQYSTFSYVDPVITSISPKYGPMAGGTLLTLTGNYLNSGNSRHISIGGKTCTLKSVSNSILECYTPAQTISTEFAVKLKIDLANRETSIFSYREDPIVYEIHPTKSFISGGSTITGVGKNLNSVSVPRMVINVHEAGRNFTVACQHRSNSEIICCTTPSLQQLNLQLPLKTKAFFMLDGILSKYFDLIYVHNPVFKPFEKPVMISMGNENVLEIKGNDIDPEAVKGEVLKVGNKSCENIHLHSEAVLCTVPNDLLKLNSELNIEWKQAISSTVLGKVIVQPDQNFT
The experiment can be described thus: competition ELISA: recombinant dimeric c-Met (100 ng/ml) captured by coated mouse anti-His antibody; antibody dilutions 30 min, then 25 ng/ml N-terminally biotinylated HGF (the competitor); strep-HRP, TMB, 620 nm; percent competition against the controls. As to the method:
Competition with N-terminally biotinylated HGF for binding to immobilized c-Met was performed using an ELISA-based competition assay. Five μg/ml mouse anti-His antibodies (Serotech) was immobilized on a maxisorb plate and, after blocking with 1% casein in PBS for 2 h, 100 ng/ml recombinant dimeric c-Met was added and incubated for 1 h at room temperature. After washing, dilutions of the antibodies were added and allowed to bind to the captured c-Met for 30 minutes, before 25 ng/ml N-terminally biotinylated HGF (R&D systems, 294-HGN/CF) was added. Biotinylated HGF was incubated at room temperature for 1 h before washing. Horseradish-conjugated streptavidin (strep-HRP) was added and incubated for an additional hour. TMB was added and the plate read at 620 nm. An isotype control (hIgG1λ) was included as a control as well as murine 5D5 antibody. Competition was expressed as percentage competition as compared to the controls (strep-HRP only or hIgG1λ) and plotted against the concentration of antibodies. An IC₅₀ was calculated using GraphPad Prism (Table 10). Antibodies 13E6 and 20A11 only displaced HGF partially (about 50%), which may be related to the epitope these two mAbs recognize on the c-Met.

For experiment [15], the target named is T1, LS1 (aa1-98) llama-human c-Met chimera. The experiment can be described thus: ELISA, 36C4 (2 µg/ml) immobilised, chimera added, streptavidin-HRP.
Source text: as §1

For experiment [16], the target named is T15, LP6 (aa497-909) llama-human c-Met chimera (human; Llama glama, UniProt P08581 25-520).
T15 construct: range 1-496 (mature numbering, E=1; derived);range 497-909 (mature numbering, E=1); not shown: Flag and strep tag
The description is as above.
Source text: as §1

For experiment [17], the target named is T16, LP7* (aa523-909) llama-human c-Met chimera (human; Llama glama, UniProt P08581 25-546).
T16 construct: range 1-522 (mature numbering, E=1; derived);range 523-909 (mature numbering, E=1); not explained further; not shown: Flag and strep tag
Described as above.
Source text: as §1

Experiment [18] has as its target T6, LI8 (aa540-909) llama-human c-Met …. The description is as above.
Source text: as §1

The target in experiment [19] is T7, LI9 (aa572-909) llama-human c-Met …. The description is as above.
Source text: as §1

Experiment [20] deals with T8, LI10 (aa608-909) llama-human c-Met …. The experiment is described as above.
Source text: as §1

Experiment [21] concerns the target T9, LI11 (aa634-909) llama-human c-Met …. Described as above.
Source text: as §1

Experiment [22] addresses T17, HMet (human c-Met of Table 16) (human, UniProt P08581 25-932, limits assumed).
T17 construct: Label not explained in the text; not shown: Flag and strep tag
The experiment can be described thus: ELISA, 36C4 (2 µg/ml) immobilised, c-Met construct added, streptavidin-HRP.
Source text: as §1

Experiment [23] addresses T18, human c-Met ECD (aa 25-932) with His tag (human, UniProt P08581 25-932).
T18 construct: range 25-932; Soluble protein from HEK293 cells; also called human c-Met (WT); not shown: His tag
Nature of the experiment: ELISA: 200 ng of the c-Met ECD protein coated on maxisorb plates; mAb dilutions 1 h RT; HRP-conjugated goat anti-human antibody, TMB, OD 620 nm.

Experiment [24] concerns the target T19, human/llama-IPT chimeric c-Met ECD (human; Llama glama, UniProt P08581 25-567).
T19 construct: range 25-567;range 568-932; Human c-Met in which IPT1-4 is exchanged for the llama IPT1-4; also called human/llama IPT1-4; construct with the human SEMA-PSI; not shown: His tag
Described as above.

In experiment [25] the target is T10, Decoy c-Met (extracellular domain of …). The experiment can be described thus: ELISA: c-Met ectodomain coated at 1 µg/ml on maxisorb plate; mAb in three-fold dilutions from 1 µg/ml, 1 h RT; HRP-conjugated Protein A, TMB, OD 450. This is another data set of the same source.

T10 sequence (P08581 25-932): as the sequence (P08581 25-932 limits assumed) above
T1 sequence (P08581 123-933, change not shown): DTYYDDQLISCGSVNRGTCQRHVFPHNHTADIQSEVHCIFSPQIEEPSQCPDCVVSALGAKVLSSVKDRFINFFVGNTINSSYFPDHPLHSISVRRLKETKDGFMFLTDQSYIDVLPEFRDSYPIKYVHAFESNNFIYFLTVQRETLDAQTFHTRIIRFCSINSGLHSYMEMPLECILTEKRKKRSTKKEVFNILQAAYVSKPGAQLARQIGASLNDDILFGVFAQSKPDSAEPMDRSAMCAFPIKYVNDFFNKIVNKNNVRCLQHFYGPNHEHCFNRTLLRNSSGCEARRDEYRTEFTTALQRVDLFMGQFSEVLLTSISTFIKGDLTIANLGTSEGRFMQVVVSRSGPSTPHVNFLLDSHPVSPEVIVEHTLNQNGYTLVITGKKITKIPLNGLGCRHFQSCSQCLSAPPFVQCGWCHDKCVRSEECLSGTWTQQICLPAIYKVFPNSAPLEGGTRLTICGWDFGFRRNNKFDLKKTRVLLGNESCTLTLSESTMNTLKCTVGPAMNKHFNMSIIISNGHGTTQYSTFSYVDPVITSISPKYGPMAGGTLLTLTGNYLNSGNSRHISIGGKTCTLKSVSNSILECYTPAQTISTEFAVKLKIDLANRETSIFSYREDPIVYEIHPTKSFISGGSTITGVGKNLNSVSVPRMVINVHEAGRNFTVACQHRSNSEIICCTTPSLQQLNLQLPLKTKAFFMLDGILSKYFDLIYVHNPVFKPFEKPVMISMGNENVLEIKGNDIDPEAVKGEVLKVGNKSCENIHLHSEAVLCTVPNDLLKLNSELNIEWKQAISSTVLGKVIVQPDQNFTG
T8 sequence (P08581 25-631, change not shown): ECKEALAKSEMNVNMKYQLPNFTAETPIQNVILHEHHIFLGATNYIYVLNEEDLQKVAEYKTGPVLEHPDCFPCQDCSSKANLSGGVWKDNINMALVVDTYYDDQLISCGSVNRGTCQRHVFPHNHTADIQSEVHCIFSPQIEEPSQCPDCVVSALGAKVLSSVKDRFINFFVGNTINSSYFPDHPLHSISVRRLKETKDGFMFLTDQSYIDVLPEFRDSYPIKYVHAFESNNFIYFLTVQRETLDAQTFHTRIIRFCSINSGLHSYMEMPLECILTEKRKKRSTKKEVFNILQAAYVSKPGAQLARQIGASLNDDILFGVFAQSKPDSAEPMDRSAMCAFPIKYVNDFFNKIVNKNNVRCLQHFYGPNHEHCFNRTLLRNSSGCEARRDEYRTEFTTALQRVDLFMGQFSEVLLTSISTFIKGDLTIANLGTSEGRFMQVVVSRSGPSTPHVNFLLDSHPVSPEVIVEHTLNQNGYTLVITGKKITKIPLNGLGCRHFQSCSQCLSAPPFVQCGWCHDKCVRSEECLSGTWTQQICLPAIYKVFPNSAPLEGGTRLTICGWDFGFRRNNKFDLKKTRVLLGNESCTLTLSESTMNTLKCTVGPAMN
T17 sequence (P08581 25-932 limits assumed): as the sequence (P08581 25-932 limits assumed) above
T18 sequence (P08581 25-932 limits assumed): as above

B1: 48A2 mAb (antibody, V domains shown)
VH: EVQLVQPGVELRNPGASVKVSCKASGYIFTMNSIDWVRQAPGQGLEWMGRIDPEDGGTKYAQKFQGRVTFTADTSTSTAYVELNSLRSEDTAVYYCARVDDYYLGYDYWGQGTQVTVSS
VL: DIVMTQTPTSVTASAGDKVTINCKSSQSVLFSSNQKNYLAWYQQRLGQSPRLLIYWASIRESGVPDRFSGSGSATDFTLTISNFQPEDAAVYYCQQGYSFPYSFGSGTRLEIR
Consider B1, for which the EC50 (in general, the concentration at which the effect is half-maximal) in experiment [1] is 0.031 µg/mL; in [2] it was 0.034 µg/mL; in [3] it was 0.05 µg/mL; in [4], 0.07 µg/mL; in [5] it was 0.05 µg/mL; in experiment [6], above 0.04 µg/mL. The EC50 was above 0.04 µg/mL in [7], above 0.04 µg/mL in [8] and 0.042 µg/mL in experiment [9].

B2: 40B8 mAb (antibody, V domains shown)
VH: EVQLVQPGAELRNPGASVKVSCKASGYTFTNYVIDWVRQAPGQGLEWMGRIDPENGGTRYAQKFQGRVTFTADTSTSTAYVELSNLRSEDTAVYYCARLEDYELAYDYWGQGTQVTVSS
VL: DIVMTQTPSSVTASAGEKVTINCKSSQSVLLSSNQKNYLAWYQQRLGQSPRLLIYWASTRESGVPDRFSGSGSTTDFTLTISSFQPEDAAVYYCQQGVSFPLTFGQGTKVELK
In the case of B2, the EC50 in [10] is 0.14 nM; in experiment [11] it was 0.13 nM. The EC50 (read off the curve) (commonly the concentration at which the effect is half-maximal) in experiment [12] was around 30 ng/mL. Further, the binding result (with c-Met SEMA ectodomain; in experiment [13]) was “no binding (tested: 1000 ng/ml)” each time. In experiment [14], the “IC50 (read off the curve)” value was around 80 pM.

B3: 36C4 mAb (antibody, V domains shown)
VH: QVQLVESGPGLVKPSQTLSLTCAVSGGSITTNYYYWSWIRQSPGKGLEWMGVIAYDGSTDYSPSLKSRTSISRDTSKNQFSLQLSSVTPEDTAVYYCARDVRVIATGWATANALDAWGQGTLVTVSS
VL: QSVLTQPPSVSGSPGKTVTISCAGTSSDVGYGNYVSWYQQLPGTAPKLLIFAVSYRASGIPDRFSGSKSGNTAFLTISGLQSEDEADYYCASYRSSNNAAVFGGGTHLTVL
notes: also called SIMPLE antibody 36C4
For B3, the EC50 in experiment [10] stood at 0.13 nM; in experiment [11], 0.14 nM; in experiment [15], 0.068 µg/mL; in experiment [16] it was 0.05 µg/mL; in experiment [17], 0.055 µg/mL; in experiment [18], 0.047 µg/mL. Further, the EC50 in [19] turned out to be 0.047 µg/mL; in experiment [20], 0.047 µg/mL; in experiment [21] it was 0.045 µg/mL; in [22] it was 0.06 µg/mL. The “EC50 (read off the curve)” value in [23] was around 600 pM; in experiment [24], around 600 pM; in experiment [25], around 20 ng/mL. Moreover, the “IC50 (read off the curve)” value in experiment [14] is around 200 pM.
